T1: recombinant GPVI-Fc (dimeric; D1 and D2 domains of GPVI fused to the Fc domain from IgG) (human, UniProt Q9HCN6 22-203)
T1 construct: range 22-203; also called GPVI-Fcγ; dimeric GPVI; not shown: Factor Xa cleavable junction and Fc domain from IgG (Sigplg+ vector)
T1 sequence (looked up): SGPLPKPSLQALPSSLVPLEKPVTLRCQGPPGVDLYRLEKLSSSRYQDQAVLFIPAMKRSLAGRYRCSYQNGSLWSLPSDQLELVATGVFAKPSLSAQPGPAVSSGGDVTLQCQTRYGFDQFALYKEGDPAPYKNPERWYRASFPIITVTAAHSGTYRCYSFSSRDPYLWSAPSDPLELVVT

T2: GPVI on human washed platelets (human, UniProt Q9HCN6 21-339)
T2 construct: whole, on cells; also called platelet GPVI
T2 sequence (looked up): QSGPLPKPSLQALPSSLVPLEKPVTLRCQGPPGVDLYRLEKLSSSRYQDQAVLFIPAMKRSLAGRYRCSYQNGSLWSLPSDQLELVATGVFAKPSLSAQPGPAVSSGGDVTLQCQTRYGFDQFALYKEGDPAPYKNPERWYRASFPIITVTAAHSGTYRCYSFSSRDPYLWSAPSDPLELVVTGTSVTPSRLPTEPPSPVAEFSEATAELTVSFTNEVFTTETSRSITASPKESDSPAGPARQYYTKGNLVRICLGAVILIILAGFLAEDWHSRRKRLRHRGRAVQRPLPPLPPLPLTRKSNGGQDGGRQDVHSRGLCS

B1: un-tagged Nb2 (thrombin-cleaved nanobody 2) (VHH)
VHH: QVQLQESGGGLVQPGGSLRLSCAAAGFTFDYYAIAWFRQAPGKEREGVSCISSSDGTTYYADSVKGRFTISKDNAKNTMYLQMNSLKPEDTAVYYCATSPLYSTNDRCISEDYDYWGQGTQVTVSS
notes: also called un-tagged nanobody 2
B2: Nb28 fluorescently labelled with AlexaFluor 647 (Nb28-AF647) (VHH)
VHH: QVQLQESGGGLVQAGDSLRLSCAASGTYSMGWFRQAPGKEREFVAAISWSGGRTNYADSVKGRFTISRDNAKNTVYLQMNSLKPEDTAVYYCSAAIYDNVSSRIGSYTYWGQGTQVTVSS
modifications: AlexaFluor 647 dye on free amino groups (NHS-ester labelling)
notes: also called labelled Nb28

Columns and labels:
[1] = target: T1, recombinant GPVI-Fc (dimeric; D1 and D2 …); experiment: displacement of GPVI-Fc (100 nM) from collagen surface; Nb2 syringe-filtered, day 0
Method: (§1) Freshly made un-tagged nanobody 2 (4.2 mg/ml in PBS) was stored at 4° C. over a period of 72 hours. Samples were collected at 0, 24, 48 and 72 hours for ELISA and nanodrop analysis. 1 ml of Nb2 was also filtered using a Whatman 0.2 um syringe filter, and 50 μL was snap-frozen and thawed to determine the effects of both syringe filtering and freeze-thawing on nanobody function. The freeze-thawed sample was only tested between 0-48 hours after thawing. ELISA displacement assays were performed on each sample as described in ‘Solid-phase binding assay’. Nb2 concentrations were determined at each time point by measuring absorbance a 280 nm using a nanodrop ND-1000 spectrophotometer.
(§2) Nb2 stability at 4° C. was tested by comparing the ability for nb2 to displace GPVI-Fc binding to a collagen surface after 0-, 24-, 48- and 72-hours storage at 4° C. (FIG. 8). Nb2 was stored in PBS with no added preservatives. In addition, samples of nb2 that were freeze-thawed and an additional sample that had been filtered were also tested. […] There was an observed reduction in protein concentration of approximately 3% when filtering but it is not abnormal for small losses in protein yield when filtering.

[2] = target: T1, recombinant GPVI-Fc (dimeric; D1 and D2 …); experiment: displacement of GPVI-Fc (100 nM) from collagen surface; Nb2 stored at 4 °C, non-filtered, day 0
Method: as §1, §2

[3] = target: T1, recombinant GPVI-Fc (dimeric; D1 and D2 …); experiment: displacement of GPVI-Fc (100 nM) from collagen surface; Nb2 stored at 4 °C, non-filtered, day 2
Method: as §1, §2

[4] = target: T1, recombinant GPVI-Fc (dimeric; D1 and D2 …); experiment: displacement of GPVI-Fc (100 nM) from collagen surface; Nb2 syringe-filtered, day 2
Method: as §1, §2

[5] = target: T1, recombinant GPVI-Fc (dimeric; D1 and D2 …); experiment: displacement of GPVI-Fc (100 nM) from collagen surface; Nb2 stored at 4 °C, non-filtered, day 1
Method: as §1, §2

[6] = target: T1, recombinant GPVI-Fc (dimeric; D1 and D2 …); experiment: displacement of GPVI-Fc (100 nM) from collagen surface; Nb2 freeze-thawed, day 1
Method: as §1, §2

[7] = target: T1, recombinant GPVI-Fc (dimeric; D1 and D2 …); experiment: displacement of GPVI-Fc (100 nM) from collagen surface; Nb2 stored at 4 °C, non-filtered, day 3
Method: as §1, §2

[8] = target: T1, recombinant GPVI-Fc (dimeric; D1 and D2 …); experiment: displacement of GPVI-Fc (100 nM) from collagen surface; Nb2 syringe-filtered, day 3
Method: as §1, §2

[9] = target: T1, recombinant GPVI-Fc (dimeric; D1 and D2 …); experiment: displacement of GPVI-Fc (100 nM) from collagen surface; Nb2 freeze-thawed, day 2
Method: as §1, §2

[10] = target: T1, recombinant GPVI-Fc (dimeric; D1 and D2 …); experiment: displacement of GPVI-Fc (100 nM) from collagen surface; Nb2 syringe-filtered, day 1
Method: as §1, §2

[11] = target: T1, recombinant GPVI-Fc (dimeric; D1 and D2 …); experiment: displacement of GPVI-Fc (100 nM) from collagen surface; Nb2 freeze-thawed, day 0
Method: as §1, §2

[12] = target: T2, GPVI on human washed platelets; experiment: flow cytometry on washed platelets, 100 nM Nb28-AF647, with or without 500 nM Nb2
Method: a) Washed platelets were incubated in an aggregometer at 37° C. and 1200 rpm in the presence of Nb28 or PBS control prior to stimulation with 10 μg/ml Horm collagen and aggregation traces captured. Nb28 had no effect on aggregation. b) Thrombin inhibited whole blood was preincubated with either vehicle (PBS) or 500 nM of unlabelled Nb28 and then flowed over fibrillar collagen I utilising the Maastricht flow chamber at 1000/s. None of the five investigated parameters of thrombus formation or platelet activation were affected by Nb28. Each data point represents one donor (n=4), unpaired non-parametric t-test was utilized to test for significance.
Washed platelets were preincubated with 500 nM Nb2 or PBS vehicle control for 10 min, followed by addition of 100 nM Nb28-AF647 and immediate fixation. 50,000 events were acquired and Nb28-AF647 signal (FL4) measured with an Accuri C6 flow cytometer (BD) and data processed with the BD Accuri C6 Software.

Binder | IC50 [1] | IC50 [2] | IC50 [3] | IC50 [4] | IC50 [5] | IC50 [6] | IC50 [7] | IC50 [8] | IC50 [9] | IC50 [10] | IC50 [11] | binding result [12]
B1 | 45.7 nM | 37 nM | 34 nM | 35.2 nM | 54.4 nM | 29.8 nM | 32.4 nM | 37.1 nM | 44 nM | 40.3 nM | 46.5 nM | 
B2 |  |  |  |  |  |  |  |  |  |  |  | binds

Source: patent publication US20240067721A1 (UNIVERSITY OF BIRMINGHAM, published 2024)
